Measured values: patent publication US20150344570A1 (published 2015)

Columns and labels:
FcγRIIIa F = FcγRIIIa F (human, UniProt P08637 17-208); test: SPR (Biacore), KD; the variant that showed the most enhancement
FcγRIIIa V = FcγRIIIa V (human, UniProt P08637 17-208); test: as above
FcγRIIa R = FcγRIIa R (human, UniProt P12318 34-217); test: SPR (Biacore), KD; showed the most enhancement
FcγRIIa H = FcγRIIa H (human, UniProt P12318 34-217); test: SPR (Biacore), KD; showed the most enhancement
FcγRIIIa = molecular target: T1, FcγRIIIa (human, UniProt P08637 17-208); test: SPR (Biacore); KD of GpH7-TA7/GpH7-B78/GpL16-k0 for FcγRIIIa divided by the KD of this antibody (this row is the reference itself)
T1 construct: extracellular domain; Soluble extracellular domain with a C-terminal His tag, expressed in FreeStyle293 cells and used as the analyte in Biacore; also called FcgRIIIa; CD16A; not shown: His tag attached to the C terminus
T1 sequence (P08637 17-208): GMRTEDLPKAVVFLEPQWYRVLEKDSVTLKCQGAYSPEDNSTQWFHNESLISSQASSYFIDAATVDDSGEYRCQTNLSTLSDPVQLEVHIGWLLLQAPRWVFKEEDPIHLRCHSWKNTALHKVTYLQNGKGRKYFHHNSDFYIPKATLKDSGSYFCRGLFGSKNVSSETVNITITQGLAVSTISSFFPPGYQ
Description: The prepared antibodies were compared for the FcγRIIIa-binding activity using, as an indicator, KD for FcγRIIIa that was determined according to the method described in Reference Example 2.
Analysis of interaction between objective antibody and the FcγR was carried out using Biacore T100 (GE Healthcare). HBS-EP+ (GE Healthcare) was used as the running buffer, and the measurement temperature was set to 25° C. Chips produced by immobilizing the antigen peptide by the amine coupling method to a Series S Sencor Chip CM5 (GE Healthcare), or alternatively, chips produced by allowing preliminarily biotinylated antigen peptides to interact with and immobilize onto a Series S Sensor Chip SA (certified) (GE Healthcare) were used. Antibodies of interest were captured onto an antigen peptide-immobilized chip, and allowed to interact to each FcγR diluted with running buffer. To regenerate and repeatedly use the chip, the antibodies captured on the chip were washed off by reacting 10 mM glycine-HCl, pH 1.5.
Specifically, to calculate association rate constant ka (L/mol/s) and dissociation rate constant kd (1/s), sensorgrams obtained by measurement were processed for global fitting by Biacore Evaluation Software using 1:1 Langmuir binding model and dissociation constant KD (mol/1) was calculated from the resulting values.

FcγRIIIa V, sequence (P08637 17-208): as above
FcγRIIIa F, sequence (P08637 17-208): as above

B1: H240-Kn227/H240-Hl214/L73-k0 (antibody, human IgG1, kappa)
heavy 1: QDQLVQSGAEVKKPGASVKVSCKASGFNIKDTYIQWVRQAPGQGLEWMGRIDPLRKQTKYREKFEGRVTITADTSTNTAYMELSSLRSEDTAVYYCVRSGREFDYWGQGTLVTVSSASTKGPSVFPLAPSSKSTSGGTAALGCLVKDYFPEPVTVSWNSGALTSGVHTFPAVLQSSGLYSLSSVVTVPSSSLGTQTYICNVNHKPSNTKVDKKVEPKSCDKTHTCPPCPAPEEQWGPIVFLFPPKPKDTLMISRTPEVTCVVVDVSDEEPEVKFNWYVDGVEVHNAKTKPREEQYNATYRVVSVLTVLHQDWLNGKEYKCKVSNKALPAPIEKTISKAKGQPREPQVCTLPPSRDELTKNQVSLWCLVKGFYPSDIAVEWESNGQPENNYKTTPPVLDSDGSFFLYSKLTVDKSRWQQGNVFSCSVMHEALHNHYTQKSLSLSP
heavy 2: QDQLVQSGAEVKKPGASVKVSCKASGFNIKDTYIQWVRQAPGQGLEWMGRIDPLRKQTKYREKFEGRVTITADTSTNTAYMELSSLRSEDTAVYYCVRSGREFDYWGQGTLVTVSSASTKGPSVFPLAPSSKSTSGGTAALGCLVKDYFPEPVTVSWNSGALTSGVHTFPAVLQSSGLYSLSSVVTVPSSSLGTQTYICNVNHKPSNTKVDKKVEPKSCDKTHTCPPCPAPELLGGPSVFLFPPKPKDTLMISRTPEVTCVVVDVSHEEPEVKFNWYVDGVEVHNAKTKPREEQYNSTYRVVSVLTVLHQDWLNGKEYKCKVSNDALPFPIEETISKAKGQPREPQVYTLPPSRCELTKNQVSLSCAVKGFYPSDIAVEWESNGQPENNYKTTPPVLDSDGSFFLVSKLTVDKSRWQQGNVFSCSVMHEALHNHYTQKSLSLSP
light: DIQMTQSPSSLSASVGDRVTITCRASQDIHKYIAWYQQKPGQAPRLLIQYTSTLQPGVPSRFSGSGSGTDYTFTISSLQPEDIATYYCLQYEQLRTFGGGTKVEIKRTVAAPSVFIFPPSDEQLKSGTASVVCLLNNFYPREAKVQWKVDNALQSGNSQESVTEQDSKDSTYSLSSTLTLSKADYEKHKVYACEVTHQGLSSPVTKSFNRGEC
notes: 330 F in H240-Hl076
- fold binding activity against H240-Kn033/H240-Hl033/L73-k0 (FcγRIIIa F): 161 fold

B2: H240-Kn203/H240-Hl210/L73-k0 (antibody, human IgG1, kappa)
heavy 1: QDQLVQSGAEVKKPGASVKVSCKASGFNIKDTYIQWVRQAPGQGLEWMGRIDPLRKQTKYREKFEGRVTITADTSTNTAYMELSSLRSEDTAVYYCVRSGREFDYWGQGTLVTVSSASTKGPSVFPLAPSSKSTSGGTAALGCLVKDYFPEPVTVSWNSGALTSGVHTFPAVLQSSGLYSLSSVVTVPSSSLGTQTYICNVNHKPSNTKVDKKVEPKSCDKTHTCPPCPAPEFYWGPMVFLFPPKPKDTLMISRTPEVTCVVVDVSDEDPEVKFNWYVDGVEVHNAKTKPREEQYNATYRVVSVLTVLHQDWLNGKEYKCKVSNKDLPAPIEKTISKAKGQPREPQVCTLPPSRDELTKNQVSLWCLVKGFYPSDIAVEWESNGQPENNYKTTPPVLDSDGSFFLYSKLTVDKSRWQQGNVFSCSVMHEALHNHYTQKSLSLSP
heavy 2: QDQLVQSGAEVKKPGASVKVSCKASGFNIKDTYIQWVRQAPGQGLEWMGRIDPLRKQTKYREKFEGRVTITADTSTNTAYMELSSLRSEDTAVYYCVRSGREFDYWGQGTLVTVSSASTKGPSVFPLAPSSKSTSGGTAALGCLVKDYFPEPVTVSWNSGALTSGVHTFPAVLQSSGLYSLSSVVTVPSSSLGTQTYICNVNHKPSNTKVDKKVEPKSCDKTHTCPPCPAPELLGGPSVFLFPPKPKDTLMISRTPEVTCVVVDVSHEEPEVKFNWYVDGVEVHNAKTKPREEQYNSTYRVVSVLTVLHQDWLNGKEYKCKVSNDALPAPIEETISKAKGQPREPQVYTLPPSRCELTKNQVSLSCAVKGFYPSDIAVEWESNGQPENNYKTTPPVLDSDGSFFLVSKLTVDKSRWQQGNVFSCSVMHEALHNHYTQKSLSLSP
light: DIQMTQSPSSLSASVGDRVTITCRASQDIHKYIAWYQQKPGQAPRLLIQYTSTLQPGVPSRFSGSGSGTDYTFTISSLQPEDIATYYCLQYEQLRTFGGGTKVEIKRTVAAPSVFIFPPSDEQLKSGTASVVCLLNNFYPREAKVQWKVDNALQSGNSQESVTEQDSKDSTYSLSSTLTLSKADYEKHKVYACEVTHQGLSSPVTKSFNRGEC
notes: 330 A in H240-Hl076
- fold binding activity against H240-Kn033/H240-Hl033/L73-k0 (FcγRIIIa V): 107 fold

B3: H240-Kn231/H240-Hl068/L73-k0 (antibody, human IgG1, kappa)
heavy 1: QDQLVQSGAEVKKPGASVKVSCKASGFNIKDTYIQWVRQAPGQGLEWMGRIDPLRKQTKYREKFEGRVTITADTSTNTAYMELSSLRSEDTAVYYCVRSGREFDYWGQGTLVTVSSASTKGPSVFPLAPSSKSTSGGTAALGCLVKDYFPEPVTVSWNSGALTSGVHTFPAVLQSSGLYSLSSVVTVPSSSLGTQTYICNVNHKPSNTKVDKKVEPKSCDKTHTCPPCPAPEIYWGPIVFLFPPKPKDTLMISRTPEVTCVVVDVSDEDPEVKFNWYVDGVEVHNAKTKPREEQYNATYRVVSVLTVLHQDWLNGKEYKCKVSNKDLPAPIEKTISKAKGQPREPQVCTLPPSRDELTKNQVSLWCLVKGFYPSDIAVEWESNGQPENNYKTTPPVLDSDGSFFLYSKLTVDKSRWQQGNVFSCSVMHEALHNHYTQKSLSLSP
heavy 2: QDQLVQSGAEVKKPGASVKVSCKASGFNIKDTYIQWVRQAPGQGLEWMGRIDPLRKQTKYREKFEGRVTITADTSTNTAYMELSSLRSEDTAVYYCVRSGREFDYWGQGTLVTVSSASTKGPSVFPLAPSSKSTSGGTAALGCLVKDYFPEPVTVSWNSGALTSGVHTFPAVLQSSGLYSLSSVVTVPSSSLGTQTYICNVNHKPSNTKVDKKVEPKSCDKTHTCPPCPAPELLGGPSVFLFPPKPKDTLMISRTPEVTCVVVDVSHEEPEVKFNWYVDGVEVHNAKTKPREEQYNSTYRVVSVLTVLHQDWLNGKEYKCKVSNDALPKPIEETISKAKGQPREPQVYTLPPSRCELTKNQVSLSCAVKGFYPSDIAVEWESNGQPENNYKTTPPVLDSDGSFFLVSKLTVDKSRWQQGNVFSCSVMHEALHNHYTQKSLSLSP
light: DIQMTQSPSSLSASVGDRVTITCRASQDIHKYIAWYQQKPGQAPRLLIQYTSTLQPGVPSRFSGSGSGTDYTFTISSLQPEDIATYYCLQYEQLRTFGGGTKVEIKRTVAAPSVFIFPPSDEQLKSGTASVVCLLNNFYPREAKVQWKVDNALQSGNSQESVTEQDSKDSTYSLSSTLTLSKADYEKHKVYACEVTHQGLSSPVTKSFNRGEC
- fold binding activity against H240-Kn033/H240-Hl033/L73-k0 (FcγRIIa R): 83 fold
- fold binding activity against H240-Kn033/H240-Hl033/L73-k0 (FcγRIIa H): 33 fold

B4: GpH7-TA7/GpH7-B78/GpL16-k0 (antibody, human IgG1, kappa)
heavy 1: QVQLVQSGAEVKKPGASVTVSCKASGYTFTDYEMHWIRQPPGEGLEWIGAIDPKTGDTAYSESFQDRVTLTADKSTSTAYMELSSLTSEDTAVYYCTRFYSYTYWGQGTLVTVSSASTKGPSVFPLAPSSKSTSGGTAALGCLVKDYFPEPVTVSWNSGALTSGVHTFPAVLQSSGLYSLSSVVTVPSSSLGTQTYICNVNHKPSNTKVDKKVEPKSCDKTHTCPPCPAPEYLWGPSVFLFPPKPKDTLMISRTPEVTCVVVDVSHEDPEVKFNWYVDGVEVHNAKTKPREEQYNATYRVVSVLTVLHQDWLNGKEYKCKVSNKALPAPIEKTISKAKGQPREPQVYTLPPSRKELTKNQVSLTCLVKGFYPSDIAVEWESNGQPENNYKTTPPVLDSDGSFFLYSKLTVDKSRWQQGNVFSCSVMHEALHNRYTQKSLSLSP
heavy 2: QVQLVQSGAEVKKPGASVTVSCKASGYTFTDYEMHWIRQPPGEGLEWIGAIDPKTGDTAYSESFQDRVTLTADKSTSTAYMELSSLTSEDTAVYYCTRFYSYTYWGQGTLVTVSSASTKGPSVFPLAPSSKSTSGGTAALGCLVKDYFPEPVTVSWNSGALTSGVHTFPAVLQSSGLYSLSSVVTVPSSSLGTQTYICNVNHKPSNTKVDKKVEPKSCDKTHTCPPCPAPELLGGPDVFLFPPKPKDTLMISRTPEVTCVVVDVSHEDPEVKFNWYVDGVEVHNAKTKPREEQYNSTYRVVSVLTVLHQDWLNGKEYKCKVSNKALPLPEEKTISKAKGQPREPQVYTLPPSRDELTKNQVSLTCLVKGFYPSDIAVEWESNGQPENNYKTTPPVLDSDGSFFLYSKLTVDKSRWQQGNVFSCSVMHEALHNHYTQESLSLSP
light: DIVMTQSPLSLPVTPGEPASISCQASESLVHSNRNTYLHWYLQKPGQSPQLLIYKVSNRFSGVPDRFSGSGSGTDFTLKISRVEAEDVGVYYCSQNTHVPPTFGQGTKVEIERTVAAPSVFIFPPSDEQLKSGTASVVCLLNNFYPREAKVQWKVDNALQSGNSQESVTEQDSKDSTYSLSSTLTLSKADYEKHKVYACEVTHQGLSSPVTKSFNRGEC
notes: Heterodimerized anti-glypican-3 IgG1 antibody with two different H chains (same variable region GpH7) and a common L chain; also called TA7/B78
- KD ratio (FcγRIIIa): 1
